B1: GST-CT_(R716A) domain (domain or fragment, human, UniProt Q99661 700-725, looked up)
chain: VIKALRLAMQLEEQASAQISSKKRPQ
notes: MCAK (Kif2c) CT domain, human, residues 700-725 as stated (the printed primers of the parent encode 701-725); source: E. coli BL21(DE3) Codon plus, purified (glutathione-sepharose, gel filtration)
B2: GST-CT_(I718A) domain (domain or fragment, human, UniProt Q99661 700-725, looked up)
chain: VIKALRLAMQLEEQASRQASSKKRPQ
notes: as for B1
B3: His-MCAK (1-725), full-length MCAK (natural protein, human, UniProt Q99661 1-725, looked up)
chain: MAMDSSLQARLFPGLAIKIQRSNGLIHSANVRTVNLEKSCVSVEWAEGGATKGKEIDFDDVAAINPELLQLLPLHPKDNLPLQENVTIQKQKRRSVNSKIPAPKESLRSRSTRMSTVSELRITAQENDMEVELPAAANSRKQFSVPPAPTRPSCPAVAEIPLRMVSEEMEEQVHSIRGSSSANPVNSVRRKSCLVKEVEKMKNKREEKKAQNSEMRMKRAQEYDSSFPNWEFARMIKEFRATLECHPLTMTDPIEEHRICVCVRKRPLNKQELAKKEIDVISIPSKCLLLVHEPKLKVDLTKYLENQAFCFDFAFDETASNEVVYRFTARPLVQTIFEGGKATCFAYGQTGSGKTHTMGGDLSGKAQNASKGIYAMASRDVFLLKNQPCYRKLGLEVYVTFFEIYNGKLFDLLNKKAKLRVLEDGKQQVQVVGLQEHLVNSADDVIKMIDMGSACRTSGQTFANSNSSRSHACFQIILRAKGRMHGKFSLVDLAGNERGADTSSADRQTRMEGAEINKSLLALKECIRALGQNKAHTPFRESKLTQVLRDSFIGENSRTCMIATISPGISSCEYTLNTLRYADRVKELSPHSGPSGEQLIQMETEEMEACSNGALIPGNLSKEEEELSSQMSSFNEAMTQIRELEEKAMEELKEIIQQGPDWLELSEMTEQPDYDLETFVNKAESALAQQAKHFSALRDVIKALRLAMQLEEQASRQISSKKRPQ
notes: MCAK (Kif2c), human, residues 1-725, full length; Cloned in the pFL vector; also called wild type MCAK; Kif2c; source: Sf9 (baculovirus), purified
B4: His-MCAK_(E712C), full length (natural protein, human, UniProt Q99661 1-725, looked up)
chain: B3 chain with E712C
notes: MCAK (Kif2c), human, residues 1-725, full length; Without DTT a disulphide between Cys712 and Cys287 is intended; also called full-length MCAK_(E712C); source: Sf9 (baculovirus), purified
B5: His-MCAK_(S715E), full length (natural protein, human, UniProt Q99661 1-725, looked up)
chain: B3 chain with S715E
notes: MCAK (Kif2c), human, residues 1-725, full length; also called full-length MCAK_(S715E); source: Sf9 (baculovirus), purified
B6: MCAK C-terminal tail (CT) domain, GST cleaved and removed (peptide, UniProt Q99661 700-725, looked up)
chain: VIKALRLAMQLEEQASRQISSKKRPQ
notes: MCAK (Kif2c) C-terminal tail (CT domain), human, residues 700-725 as stated; also called free CT domain; C terminus; source: E. coli BL21(DE3) Codon plus, purified as GST fusion, GST cleaved with GST-3C protease and removed
B7: GST-CT_(E712C) domain (domain or fragment, human, UniProt Q99661 700-725, looked up)
chain: VIKALRLAMQLECQASRQISSKKRPQ
notes: MCAK (Kif2c) CT domain, human, residues 700-725 as stated (the printed primers of the parent encode 701-725); Designed to form a disulphide bridge with Cys287 of the motor domain without DTT; source: E. coli BL21(DE3) Codon plus, purified (glutathione-sepharose, gel filtration)
B8: GST-CT_(S715A) domain (domain or fragment, human, UniProt Q99661 700-725, looked up)
chain: VIKALRLAMQLEEQAARQISSKKRPQ
notes: as for B1

Data set [1] deals with T1, His-MCAK motor region with the neck linker region (M) (human, UniProt Q99661 183-583).
T1 construct: MCAK (Kif2c), human, neck linker region and motor region; the methods state residues 183-583, the results state 181-583; Cloned in pET3aTr; also called motor domain; MCAK motor domain; source: E. coli BL21(DE3) Codon plus, purified (Ni-NTA, gel filtration)
The data set can be described thus: pull-down; resin-based binding assay: GST-CT or GST-CT point mutants (GST as a control) on glutathione agarose beads; purified His-M, His-NM or cleaved CT domain added; Coomassie-stained gel. Conditions: both partners purified.

Data set [2] concerns the molecule itself. As to the kind of experiment: SEC; gel filtration of full-length MCAK proteins alone; elution compared with wild type full-length MCAK.
Data set [3] deals with T1, His-MCAK motor region with the neck …. As to the kind of experiment: SEC-MALS; motor domain with CT domain; Superdex 200 10/300 GL; 2 mg/ml in 100 mM HEPES, pH 7.2, 150 mM NaCl. The settings on record: both partners purified. (Size exclusion chromatography separates by hydrodynamic size, large species first.)
The target in data set [4] is B5. As to the kind of experiment: co-sedimentation; competition: 100 nM full-length MCAK_(S715E) with 2 μM taxol-stabilized microtubules and increasing concentration of cleaved free CT domain; western blot. Conditions: both partners purified. On the technique in general: Immunoblotting shows a protein as a band on a membrane.
For data set [5], the target named is T1, His-MCAK motor region with the neck …. As to the kind of experiment: other fluorescence titration; intrinsic tryptophan/aromatic fluorescence (excitation 295 and 280 nm) of 1 μM motor domain, CT domain titrated 0 to 15,660 nM; 25°C; 100 mM HEPES, pH 7.4, 150 mM NaCl; motor pre-treated with EDTA to remove ADP. The settings on record: both partners purified.
The target is the same in data set [6]. The data set can be described thus: SEC; analytical gel filtration of the motor with GST-CT_(E712C) under oxidizing conditions; fractions on Coomassie-stained SDS-PAGE. Conditions: both partners purified.

Where a chain is given by its changes, count along the chain named. In names and notes the source's numbering stands.

Turning to B1, the binding result in data set [1] is on record as “binds”. With B2, the binding result in data set [1] is given as “binds”.

Regarding B3, in data set [2], the binding result is “binds”.

Take B4: the binding result in data set [2] is on record as “binds”. For B5, the binding result in data set [2] was “binds”. The term stoichiometry N denotes the number of molecules, sites or subunits per partner or assembly. As usually defined, the Kd is the concentration at which binding is half-saturated. For B6, in data set [3], the “stoichiometry N” value was 0.5 CT domain per motor domain. Also, in data set [4], the binding result is “binds”. In data set [5], the Kd was roughly 1.1 µM. Consider B7, for which, in data set [6], the “stoichiometry N” value was determined as 0.5 CT domain per motor. Regarding B8, the binding result in data set [1] is given as “binds”.

Values taken from paper PMC4443670, “The C-terminal region of the motor protein MCAK controls its structure and activity through a conformational switch” (eLife, 2015).
